Laboratory results taken from patent publication US20240117326A1 (COMMONWEALTH SCIENTIFIC AND INDUSTRIAL RESEARCH ORGANISATION, published 2024).

B1: MPP-processed MTP-FAγ51::NifU::TwinStrep fusion polypeptide encoded by SN166 (scar9::GG::NifU::TS) (other)
chain: not shown
notes: N-terminal analysis and the tryptic peptide ISTQVVR confirmed cleavage at the intended site; Purified from N. benthamiana leaves; also called scar9-NifU::TS; scar9-NifU-TwinStrep
B2: unprocessed MTP-FAγ51::NifS::HA fusion polypeptide encoded by SN31 (enzyme)
chain: MMAMAVFRREGRRLLPSIAARPIAAIRSPLSSDQEEGLLGVRSISTQVVRNRGGMKQVYLDNNATTRLDPMVLEAMMPFLTDFYGNPSSIHDFGIPAQAALERAHQQAAALLGAEYPSEIIFTSCATEATATAIASAIALLPERREIITSVVEHPATLAACEHLERQGYRIHRIAVDSEGALDMAQFRAALSPRVALVSVMWANNETGVLFPIGEMAELAHEQGALFHCDAVQVVGKIPIAVGQTRIDMLSCSAHKFHGPKGVGCLYLRRGTRFRPLLRGGHQEYGRRAGTENICGIVGMGAACELANIHLPGMTHIGQLRNRLEHRLLASVPSVMVMGGGQPRVPGTVNLAFEFIEGEAILLLLNQAGIAASSGSACTSGSLEPSHVMRAMNIPYTAAHGTIRFSLSRYTREKEIDYVVATLPPIIDRLRALSPYWQNGKPRPADAVFTPVYGGGYPYDVPDYA
notes: Full-length translation product, not cleaved by MPP; also called unprocessed form of the NifS fusion polypeptide
B3: MPP-processed MTP-FAγ51::NifS::TwinStrep fusion polypeptide encoded by SN231 (scar9::NifS::TS) (enzyme)
chain: not shown
notes: the text names scar9::NifS::TS in the eluate; also called MTP-FAγ51::NifS::TS
B4: MPP-processed MTP-FAγ51::HA::AnfK fusion polypeptide (gene of SN129; in SL26, SL30, SL93) (enzyme)
chain: ISTQVVRNRGGYPYDVPDYAGGMTCEVKEKGRVGTINPIFTCQPAGAQFVSIGIKDCIGIVHGGQGCVMFVRLIFSQHYKESFELASSSLHEDGAVFGACGRVEEAVDVLLSRYPDVKVVPIITTCSTEIIGDDVDGVIKKLNEGLLKEKFPDREVHLIAMHTPSFVGSMISGYDVAVRDVVRHFAKREAPNDKINLLTGWVNPGDVKELKHLLGEMDIEANVLFEIESFDSPILPDGSAVSHGNTTIEDLIDTGNARATFALNRYEGTKAAEYLQKKFEIPAIIGPTPIGIRNTDIFLQNLKKATGKPIPQSLAHERGVAIDALADLTHMFLAEKRVAIYGAPDLVIGLAEFCLDLEMKPVLLLLGDDNSKYVDDPRIKALQENVDYGMEIVTNADFWELENRIKNEGLELDLILGHSKGRFISIDYNIPMLRVGFPTYDRAGLFRYPTVGYGGAIWLAEQMANTLFADMEHKKNKEWVLNVW
notes: also called HA::AnfK processed
B5: MPP-processed MTP-CoxIV::Twin Strep::AnfK fusion polypeptide (gene of SN195; in SL34, SL37, SL43) (enzyme)
chain: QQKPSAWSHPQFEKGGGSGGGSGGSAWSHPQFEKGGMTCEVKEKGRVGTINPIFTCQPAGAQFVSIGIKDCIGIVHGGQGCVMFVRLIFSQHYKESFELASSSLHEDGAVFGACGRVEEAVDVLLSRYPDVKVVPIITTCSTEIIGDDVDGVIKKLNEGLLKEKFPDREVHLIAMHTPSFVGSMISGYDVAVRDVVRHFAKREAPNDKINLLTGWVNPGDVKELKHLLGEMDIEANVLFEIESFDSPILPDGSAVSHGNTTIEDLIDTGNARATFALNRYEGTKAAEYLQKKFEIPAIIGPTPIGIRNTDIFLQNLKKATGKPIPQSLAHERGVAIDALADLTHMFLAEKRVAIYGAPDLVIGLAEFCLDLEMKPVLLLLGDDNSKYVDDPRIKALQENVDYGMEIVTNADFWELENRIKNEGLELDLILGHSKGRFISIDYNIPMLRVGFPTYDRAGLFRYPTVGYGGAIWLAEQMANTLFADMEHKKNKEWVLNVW
notes: also called MTP-CoxIV::TwinStrep::AvAnfK

What was measured:
[1] = target: T1, MPP-processed MTP-FAγ51::NifS::HA fusion polypeptide encoded by SN31 (scar9::GG::NifS::HA) (Klebsiella oxytoca, UniProt P05344 1-397); experiment: co-purification on StreptactinXT column through NifU::TS from N. benthamiana leaf extract (SN31 + SN166), anaerobic, non-denaturing; anti-HA Western blot
T1 construct: also called scar9-NifS::HA; processed NifS
T1 sequence: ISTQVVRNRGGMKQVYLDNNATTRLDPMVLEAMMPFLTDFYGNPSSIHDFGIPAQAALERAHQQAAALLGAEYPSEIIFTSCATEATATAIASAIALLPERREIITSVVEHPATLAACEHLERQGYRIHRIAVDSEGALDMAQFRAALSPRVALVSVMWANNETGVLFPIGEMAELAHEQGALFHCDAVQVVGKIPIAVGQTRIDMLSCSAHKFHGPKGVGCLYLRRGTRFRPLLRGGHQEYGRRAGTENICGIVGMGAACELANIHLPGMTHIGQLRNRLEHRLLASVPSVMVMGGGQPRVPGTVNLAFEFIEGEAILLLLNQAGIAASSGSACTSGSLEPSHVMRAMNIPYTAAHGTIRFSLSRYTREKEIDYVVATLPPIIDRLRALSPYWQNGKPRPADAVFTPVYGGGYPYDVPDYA

[2] = target: B1; experiment: co-purification on StreptactinXT column through NifU::TS from N. benthamiana leaf extract (SN31 + SN166), anaerobic, anti-HA Western blot of the eluate
[3] = target: T2, MPP-processed MTP-FAγ51::NifU::HA fusion polypeptide encoded by SN32 (scar9::GG::NifU::HA) (Klebsiella oxytoca, UniProt P05343 1-274); experiment: co-purification on StrepTactinXT column through NifS::TS from N. benthamiana leaf extract (SN231 + SN32); anti-HA Western blot
T2 construct: also called scar9::NifU::HA; processed NifU
T2 sequence: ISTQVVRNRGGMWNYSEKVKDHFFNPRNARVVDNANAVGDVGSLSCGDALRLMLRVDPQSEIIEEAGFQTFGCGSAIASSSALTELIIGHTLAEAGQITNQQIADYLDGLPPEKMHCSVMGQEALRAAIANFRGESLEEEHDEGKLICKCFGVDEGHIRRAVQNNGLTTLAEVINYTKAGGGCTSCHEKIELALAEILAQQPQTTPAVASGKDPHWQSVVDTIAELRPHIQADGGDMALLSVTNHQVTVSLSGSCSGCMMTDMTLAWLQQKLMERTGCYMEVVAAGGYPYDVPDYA

[4] = target: T3, MPP-processed MTP-FAγ51::AnfD::Twin Strep fusion polypeptide (gene of SN177, expressed from multi-gene vector … (Azotobacter vinelandii, UniProt P16266 1-518)); experiment: discussion of the AnfD::TwinStrep purification, aerobic
T3 construct: The eluted AnfD migrated at the size of the processed form; also called AnfD polypeptide (SL30)
T3 sequence (P16266 other isoform, or with tags, fused parts or gaps): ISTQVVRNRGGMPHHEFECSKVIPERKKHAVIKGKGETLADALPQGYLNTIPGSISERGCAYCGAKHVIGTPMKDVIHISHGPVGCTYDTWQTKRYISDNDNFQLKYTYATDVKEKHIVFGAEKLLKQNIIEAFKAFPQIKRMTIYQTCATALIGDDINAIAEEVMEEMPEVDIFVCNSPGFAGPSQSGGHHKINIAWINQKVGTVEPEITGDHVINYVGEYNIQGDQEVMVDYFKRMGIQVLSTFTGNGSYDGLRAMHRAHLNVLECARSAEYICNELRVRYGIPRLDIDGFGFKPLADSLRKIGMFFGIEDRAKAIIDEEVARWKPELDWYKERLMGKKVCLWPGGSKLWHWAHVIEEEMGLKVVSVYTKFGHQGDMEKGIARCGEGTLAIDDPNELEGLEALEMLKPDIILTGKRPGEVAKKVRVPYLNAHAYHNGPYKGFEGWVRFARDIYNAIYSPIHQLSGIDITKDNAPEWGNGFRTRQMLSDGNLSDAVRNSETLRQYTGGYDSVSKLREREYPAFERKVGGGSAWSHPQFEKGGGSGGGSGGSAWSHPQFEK

[5] = target: T4, MPP-processed MTP-FAγ51::HA::AnfD fusion polypeptide (gene of SN161; in SL26, SL34, SL43, SL93) (Azotobacter vinelandii, UniProt P16266 1-518); experiment: co-purification on Strep-tactin column through TwinStrep::AnfK (SL34), aerobic; anti-HA Western blot
T4 construct: also called HA::AnfD processed; AnfD polypeptide

Question: Does B1 bind [1]?
Answer: Result: binds

Question: Does B2 bind [2]?
Answer: Result: no binding

Question: Does B3 bind [3]?
Answer: Result: binds

Question: Does B4 bind [4]?
Answer: Result: binds

Question: Does B5 bind [5]?
Answer: Result: binds
